We go through 1 molecule from patent US20150329626A1.

In one assay the target is rabbit Ang2 (rabbit) (UniProt G1T9B3). As to the kind of experiment: Biacore SPR, 37 C, n = 3, antibody captured on Protein A.
Assay [1] addresses human Ang2 (human) (UniProt O15123). Described as above.
For assay [2], the target named is cyno Ang2 (cynomolgus monkey). Described as above.
Another assay concerns the target dog Ang2 (dog). The description is as above.
A further assay deals with mouse Ang2 (mouse) (UniProt O35608). Described as above.
For assay [3], the target named is human Ang2 (human) (UniProt O15123). As to the kind of experiment: competition ELISA: blocking of biotinylated human Ang2 binding to plate-coated human Tie2-Fc.
Assay [4] shares this target. Briefly: cell-based or functional assay.

Chain of dog Ang2 (dog) (A0A8J8 19-495 limits assumed): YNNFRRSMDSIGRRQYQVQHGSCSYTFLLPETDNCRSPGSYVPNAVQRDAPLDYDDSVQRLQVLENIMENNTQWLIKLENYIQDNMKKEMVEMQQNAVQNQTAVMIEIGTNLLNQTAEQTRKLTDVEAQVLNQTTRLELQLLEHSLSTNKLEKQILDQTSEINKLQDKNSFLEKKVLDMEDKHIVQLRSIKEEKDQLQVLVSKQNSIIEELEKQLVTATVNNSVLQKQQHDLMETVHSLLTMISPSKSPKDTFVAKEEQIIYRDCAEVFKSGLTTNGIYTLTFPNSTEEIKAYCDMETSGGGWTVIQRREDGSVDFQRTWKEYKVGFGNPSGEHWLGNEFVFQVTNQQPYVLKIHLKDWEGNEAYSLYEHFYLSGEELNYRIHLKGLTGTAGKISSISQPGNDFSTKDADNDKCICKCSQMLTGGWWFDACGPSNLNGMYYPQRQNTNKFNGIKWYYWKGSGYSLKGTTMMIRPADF
Chain of mouse Ang2 (mouse) (O35608 19-496 limits assumed): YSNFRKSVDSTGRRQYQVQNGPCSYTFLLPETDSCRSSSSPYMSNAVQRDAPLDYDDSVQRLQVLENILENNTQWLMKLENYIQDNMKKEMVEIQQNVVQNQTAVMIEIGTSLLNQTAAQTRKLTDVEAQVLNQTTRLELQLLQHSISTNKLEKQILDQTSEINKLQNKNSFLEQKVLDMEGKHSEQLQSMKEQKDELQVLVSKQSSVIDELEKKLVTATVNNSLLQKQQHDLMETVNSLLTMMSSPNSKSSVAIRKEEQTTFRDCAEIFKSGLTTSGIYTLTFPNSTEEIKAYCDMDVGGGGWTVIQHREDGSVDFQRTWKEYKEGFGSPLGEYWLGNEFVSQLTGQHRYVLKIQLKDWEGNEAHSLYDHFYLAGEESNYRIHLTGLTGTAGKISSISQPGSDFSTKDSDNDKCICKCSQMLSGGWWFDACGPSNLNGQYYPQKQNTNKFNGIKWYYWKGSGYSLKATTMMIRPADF
Chain of human Ang2 (human) (O15123 19-496 limits assumed): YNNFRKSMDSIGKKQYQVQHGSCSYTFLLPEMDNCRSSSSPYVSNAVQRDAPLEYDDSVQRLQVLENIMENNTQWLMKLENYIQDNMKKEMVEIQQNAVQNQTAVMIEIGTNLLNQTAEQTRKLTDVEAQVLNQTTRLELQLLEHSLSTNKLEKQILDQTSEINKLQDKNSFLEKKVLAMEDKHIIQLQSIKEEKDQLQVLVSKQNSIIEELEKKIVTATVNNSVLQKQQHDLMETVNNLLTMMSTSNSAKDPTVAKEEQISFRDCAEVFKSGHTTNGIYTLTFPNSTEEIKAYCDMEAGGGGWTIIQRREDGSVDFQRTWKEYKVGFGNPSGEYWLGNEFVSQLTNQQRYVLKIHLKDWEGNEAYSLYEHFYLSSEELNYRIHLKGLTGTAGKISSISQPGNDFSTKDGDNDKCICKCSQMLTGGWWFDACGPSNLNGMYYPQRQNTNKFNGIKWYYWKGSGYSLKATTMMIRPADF
Chain of rabbit Ang2 (rabbit) (G1T9B3 entry or part of it): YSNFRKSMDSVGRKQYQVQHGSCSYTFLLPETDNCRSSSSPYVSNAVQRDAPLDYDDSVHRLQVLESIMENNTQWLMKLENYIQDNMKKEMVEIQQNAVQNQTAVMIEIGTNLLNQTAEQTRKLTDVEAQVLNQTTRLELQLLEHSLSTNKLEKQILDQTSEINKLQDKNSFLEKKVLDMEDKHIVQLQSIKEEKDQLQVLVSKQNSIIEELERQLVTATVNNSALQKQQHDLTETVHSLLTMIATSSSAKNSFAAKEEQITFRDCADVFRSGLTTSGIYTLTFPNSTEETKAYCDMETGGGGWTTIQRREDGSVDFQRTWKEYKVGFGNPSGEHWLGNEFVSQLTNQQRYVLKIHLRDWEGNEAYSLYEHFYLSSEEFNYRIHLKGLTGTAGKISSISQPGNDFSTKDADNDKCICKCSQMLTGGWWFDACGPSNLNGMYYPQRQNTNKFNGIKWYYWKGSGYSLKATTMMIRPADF

B1: Ang2 antibody with the same HCDRs and LCDRs as the scFv polypeptide portion of Compound F (antibody, V domains shown)
VH: QVQLVQSGAEVKKPGSSVKVSCKASGYSFTDYNMVWVRQAPGQCLEWMGYIDPYNGGTGYNQKFEGRVTITADESTSTAYMELSSLRSEDTAVYYCARTRDRYDVWYFDVWGQGTLVTVSS
VL: DIVMTQSPDSLAVSLGERATINCKASQDVYIAVAWYQQKPGQPPKLLIYWASTRDTGVPDRFSGSGSGTDFTLTISSLQAEDVAVYYCHQYSSYPPTFGCGTKVEIK
modifications: CDRs only; frameworks, constant regions missing
For the molecule B1, the Kd was 210 pM with rabbit Ang2 (rabbit); 80 pM with human Ang2 (human) [1]; 107 pM in assay [2]; 140 pM with dog Ang2 (dog); 109 pM with mouse Ang2 (mouse). The koff with rabbit Ang2 (rabbit) came out at 0.00015 s⁻¹; in the assay with human Ang2 (human) [1], 7e-05 s⁻¹; in assay [2] it was 0.00029 s⁻¹; with dog Ang2 (dog), 0.00011 s⁻¹; with mouse Ang2 (mouse), 0.00011 s⁻¹. Besides, the on-rate (kon) worked out at 730000 M⁻¹ s⁻¹ with rabbit Ang2 (rabbit); 1e+06 M⁻¹ s⁻¹ with human Ang2 (human) [1]; 2.7e+06 M⁻¹ s⁻¹ in assay [2]; 790000 M⁻¹ s⁻¹ in the assay with dog Ang2 (dog); 1e+06 M⁻¹ s⁻¹ with mouse Ang2 (mouse). In addition, the IC50 with human Ang2 (human) [3] came out at 27 pM. Further, in the assay with human Ang2 (human) [4], the inhibition of human Ang2 induced phospho-Tie2 in CHO-Tie2 cells (IC50) is 773 pM.
